Experimental data reported in patent publication US20050203009A1, “VPAC1 selective antagonists and their pharmacological methods of use” (Bayer Pharmaceuticals Corporation, priority 2004, published 2005).
Square brackets hold non-standard residues; d marks the D form. Primed or numbered codes have the meaning given here. Side chains are listed from the residue outwards. Ends that are not written are not given here. Peptide text beside a SMILES is read from it. maleimide″ = maleimide group of the 22 kD methoxy-PEG-maleimide reagent, which reacts with the Cys sulfhydryl to form a stable thioether linkage; maleimide = methoxy-PEG-maleimide (thioether to cysteine thiol)

Key:
[1] = test system: NCI-H727 human non-small cell lung carcinoma cell line; test: NCI-H727 cancer cell proliferation assay (Alamar Blue); type: cell-based
Description: NCI-H727 is an adherent human non-small cell lung carcinoma cell line. The cells are grown in RPMI-1640 plus 2 mM L-Glutamine and 10% FBS and cells subcultured in the following manner: Medium was removed and cells were rinsed once in PBS solution. To harvest the cells 10 mls PBS containing 2 ml of trypsin-EDTA solution was added to a 75 ml flask. The flask was incubated at 37° C. until the cells detached. Fresh culture medium was added, aspirated and dispensed into new culture flasks. A split ratio of 1:3 to 1:4 was carried out 2 times per week. The 96-well assay was performed as follows: Day 1) Cells were seeded at 7000 cells/well in 0.2 ml complete medium/well and incubated overnight at 37° C. Day 2) Complete medium was aspirated from wells and 200 ul/well PBS was added and aspirated. Cells were then treated with peptides using the assay medium RPMI-1640 plus 2 mM L-Glutamine and 0.2% FBS at a final volume of 200 ul/well and incubated for 2 days. Day 4) Alamar Blue (10% of total volume) was added to wells and absorbance (530/590 nm) read at 0, 4, 6, 8, 10 and 24 hours.

VPAC2 = target: T1, VPAC2 (Homo sapiens, UniProt P41587); test: Receptor competition assay, 125I-PACAP27 binding to CHO membranes (VPAC2); conditions: membranes of VPAC2-transfected CHO cells, 0.1 nM 125I-PACAP27
T1 construct: expressed in transfected cells; membranes
T1 sequence (P41587 24-438): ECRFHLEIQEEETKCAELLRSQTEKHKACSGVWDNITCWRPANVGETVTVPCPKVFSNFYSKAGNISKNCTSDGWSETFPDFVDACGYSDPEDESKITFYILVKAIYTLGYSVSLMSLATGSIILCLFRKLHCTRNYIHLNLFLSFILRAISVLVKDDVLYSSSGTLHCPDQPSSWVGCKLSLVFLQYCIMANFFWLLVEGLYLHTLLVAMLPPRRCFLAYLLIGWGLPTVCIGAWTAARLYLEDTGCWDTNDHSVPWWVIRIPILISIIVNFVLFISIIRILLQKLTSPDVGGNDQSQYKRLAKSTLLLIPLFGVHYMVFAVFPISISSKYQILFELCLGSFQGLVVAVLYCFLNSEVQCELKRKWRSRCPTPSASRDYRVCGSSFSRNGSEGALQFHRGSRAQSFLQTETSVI
Text: In order to test for selective binding of the VPAC1 selective antagonist to the VPAC1, both the VPAC1 and VPAC2 receptors were expressed in CHO cells using the following procedure. The human VPAC1 and the VPAC2 were cloned via RT PCR from human heart mRNA and human testis mRNA, respectively, using TaqPlus Precision PCR System (Stratagene). The PCR products were subcloned into pCDNA3.1 (Invitrogen) for in vitro translation and mammalian expression. The cell line chosen for expression was the CHOcreluc line already expressing a cAMP response element-luciferase reporter along with Gα16. These cells were grown under hygromycin selection at 0.4 mg/ml. On the day of transfection, CHOcreluc cells at 70% confluency were washed with serum free media and transfected using Lipofectamine Plus Reagent (Gibco BRL). Stable pools were selected in the presence of 0.4 mg/ml hygromycin and 1.5 mg/ml G418. Once viably-frozen stocks had been made from these pools they were cloned by limiting dilution.
The capacity of the VPAC1 selective antagonist to selectively bind the VPAC1 as opposed to the VPAC2 receptor was measured using membranes prepared from CHO cells transfected with both receptors as described in Example 3. […] The filters were washed with cold 25 mM NaPO4 containing 1% BSA and counted in a gamma counter. […]

human VPAC1 [2] = target: T2, human VPAC1 (human, UniProt P32241 31-457); test: ratio of the VPAC2 and VPAC1 IC50 values, 125I-PACAP27 competition on CHO membranes
T2 construct: whole, on cells; The cAMP assay used whole cells; also called VPAC1 receptor
T2 sequence (looked up): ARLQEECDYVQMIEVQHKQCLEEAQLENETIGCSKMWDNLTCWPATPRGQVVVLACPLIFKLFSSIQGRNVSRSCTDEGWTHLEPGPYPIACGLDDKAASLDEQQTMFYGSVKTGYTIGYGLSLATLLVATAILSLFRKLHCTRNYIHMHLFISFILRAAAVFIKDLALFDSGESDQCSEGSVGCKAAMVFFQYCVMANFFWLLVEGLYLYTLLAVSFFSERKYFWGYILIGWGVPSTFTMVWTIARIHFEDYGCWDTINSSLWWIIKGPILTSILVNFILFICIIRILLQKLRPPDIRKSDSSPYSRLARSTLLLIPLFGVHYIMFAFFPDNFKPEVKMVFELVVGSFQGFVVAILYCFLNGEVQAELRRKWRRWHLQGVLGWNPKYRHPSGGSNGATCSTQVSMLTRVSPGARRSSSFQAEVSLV
Description: (§1) Cells were washed with phosphate buffered saline (PBS), scraped in homogenization buffer (10 mM Tris pH 7.4, 2 mM EDTA, 5 mM MgCl2, 1 mM PMSF), followed by centrifugation at 4000 g for 10 minutes at 4° C. The cell pellet was resuspended in homogenization buffer and homogenized using a Polytron. Membranes were collected by centrifugation at 30,000 g for 30 minutes at 4° C., resuspended in homogenization buffer, and stored at −80° C. until use. […] After incubating at 37° C. for 20 minutes, bound ligand was collected on GF/C filters pretreated with 0.1% polyethylenimine. The filters were washed with cold 25 mM NaPO4 containing 1% BSA and counted in a gamma counter. All reagents were purchased from Sigma unless otherwise indicated.

human VPAC1 [3] = target: T2, human VPAC1; test: cell-based or functional assay
human VPAC1 [4] = target: T2, human VPAC1; test: competition with 125I-PACAP27 on membranes of CHO cells expressing human VPAC1
Description: as §1

CC[C@H](C)[C@H](NC(=O)[C@H](CO)NC(=O)[C@H](CCC(N)=O)NC(=O)[C@H](CC(C)C)NC(=O)[C@H](CC(C)C)NC(=O)[C@H](CCCCN)NC(=O)[C@H](CCCNC(=N)N)NC(=O)[C@H](C)NC(=O)[C@H](CO)NC(=O)[C@H](CC(C)C)NC(=O)[C@H](CCCNC(=N)N)NC(=O)[C@H](CCCCN)NC(=O)[C@H](CC(C)C)NC(=O)[C@@H](NC(=O)[C@H](CCCCN)NC(=O)[C@H](CCCNC(=N)N)NC(=O)[C@H](Cc1ccc(O)cc1)NC(=O)[C@H](CO)NC(=O)[C@H](CC(N)=O)NC(=O)[C@@H](NC(=O)[C@H](Cc1ccccc1)NC(=O)[C@@H](NC(=O)[C@H](C)NC(=O)[C@H](CC(=O)O)NC(=O)[C@@H](Cc1ccccc1)NC(=O)[C@H](Cc1c[nH]cn1)NC(C)=O)C(C)C)[C@@H](C)O)C(C)C)C(=O)N[C@@H](CC(C)C)C(N)=O [Peptide R2P16] (HELM PEPTIDE1{[ac].H.[dF].D.A.V.F.T.N.S.Y.R.K.V.L.K.R.L.S.A.R.K.L.L.Q.S.I.L.[am]}$$$$V2.0)
IC50 relative to reference compound R2P2 [1]: three times lower

R2P3-PEG22kD: R2P3 (SEQ ID NO 4) PEGylated at the C-terminal cysteine with 22 kD methoxy-PEG-maleimide (Ac-H[dF]DAVFTNSYRKVLKRLSARKLLQDILC([maleimide″-methoxy‑PEG 22 kD]); not fully specified (C-terminus); printed as HfDAVFTNSYRKVLKRLSARKLLQDILC*; also: C-terminal * undefined) [Peptide R2P3-PEG22kD]
IC50 (VPAC2): > 10000 nM

R2P11-PEG22kD: R2P11 (SEQ ID NO 5) PEGylated at the C-terminal cysteine with 22 kD methoxy-PEG-maleimide (Ac-H[dF]DAVFTNSYRKVLKRLSVRKLLQDILC([maleimide-methoxy‑PEG 22 kD]); not fully specified (C-terminus); printed as HfDAVFTNSYRKVLKRLSVRKLLQDILC*; also: C-terminal * undefined)
IC50 (VPAC2): > 10000 nM

B1: R2P3-PEG22kD (peptide)
peptide: Ac-H[dF]DAVFTNSYRKVLKRLSARKLLQDILC([maleimide-methoxy‑PEG 22 kD])-NH2
notes: also called PEGylated R2P3
VPAC2/1 Selectivity (human VPAC1 [2]): > 480 fold | CHO VPAC1 cAMP inhibition (IC50 against 1 nM VIP) (human VPAC1 [3]): 181 nM | IC50 (human VPAC1 [4]): 21 nM

B2: R2P11-PEG22kD (peptide)
peptide: Ac-H[dF]DAVFTNSYRKVLKRLSVRKLLQDILC([maleimide-methoxy‑PEG 22 kD])-NH2
notes: also called PEGylated R2P11
VPAC2/1 Selectivity (human VPAC1 [2]): > 200 fold | CHO VPAC1 cAMP inhibition (IC50 against 1 nM VIP) (human VPAC1 [3]): 101 nM | IC50 (human VPAC1 [4]): 49 nM

B3: R2P16 (peptide)
peptide: HFDAVFTNSYRKVLKRLSARKLLQSIL
HELM: PEPTIDE1{[ac].H.[dF].D.A.V.F.T.N.S.Y.R.K.V.L.K.R.L.S.A.R.K.L.L.Q.S.I.L.[am]}$$$$V2.0
SMILES: CC[C@H](C)[C@H](NC(=O)[C@H](CO)NC(=O)[C@H](CCC(N)=O)NC(=O)[C@H](CC(C)C)NC(=O)[C@H](CC(C)C)NC(=O)[C@H](CCCCN)NC(=O)[C@H](CCCNC(=N)N)NC(=O)[C@H](C)NC(=O)[C@H](CO)NC(=O)[C@H](CC(C)C)NC(=O)[C@H](CCCNC(=N)N)NC(=O)[C@H](CCCCN)NC(=O)[C@H](CC(C)C)NC(=O)[C@@H](NC(=O)[C@H](CCCCN)NC(=O)[C@H](CCCNC(=N)N)NC(=O)[C@H](Cc1ccc(O)cc1)NC(=O)[C@H](CO)NC(=O)[C@H](CC(N)=O)NC(=O)[C@@H](NC(=O)[C@H](Cc1ccccc1)NC(=O)[C@@H](NC(=O)[C@H](C)NC(=O)[C@H](CC(=O)O)NC(=O)[C@@H](Cc1ccccc1)NC(=O)[C@H](Cc1c[nH]cn1)NC(C)=O)C(C)C)[C@@H](C)O)C(C)C)C(=O)N[C@@H](CC(C)C)C(N)=O
notes: Synthetic VIP/GHRH hybrid peptide, not PEGylated; also called Peptide R2P16
VPAC2/1 Selectivity (human VPAC1 [2]): > 700 fold | CHO VPAC1 cAMP inhibition (IC50 against 1 nM VIP) (human VPAC1 [3]): 50 nM | IC50 (human VPAC1 [4]): 17 nM
